Results on one substance are retold here after PMC4216188.

This assay concerns the target I53A FLAG-Pen-2 (human) (UniProt Q9NZ42). In words: co-IP.
Chain of UniProt Q9NZ42 (Q9NZ42 whole entry I53A): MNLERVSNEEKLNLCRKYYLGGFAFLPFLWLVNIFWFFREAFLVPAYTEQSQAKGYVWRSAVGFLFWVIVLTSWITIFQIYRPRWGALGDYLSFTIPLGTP

“presenilin 1 C-terminal fragment (PS1-CTF) (domain or fragment)”: the PS1-CTF associated with immunoprecipitated Pen-2, percent of wt was < 40 % of wt.
